Data from patent publication US20030077740A1, “Presenilin/Crk binding polypeptides (PCBP) and methods of use thereof” (priority 2001, published 2003).

Legend:
PS1 = target: T1, PS1 (Homo sapiens, UniProt P49768, L392V); assay: yeast two-hybrid interaction with PS1; format: binding; conditions: yeast two-hybrid system
T1 construct: the large hydrophilic loop region of PS1 (amino acids 1-81, 429-468, 263-407, respectively) were inserted into the pGBT9 vector; expressed in transfected cells; host or cells: yeast Y190

Crk = target: T2, Crk (Homo sapiens, UniProt P46108); assay: co-immunoprecipitation with Crk in 293T cells; format: binding; conditions: anti-PBP-TAG immunoprecipitation, Western blot with antibody against Crk
T2 construct: expressed in transfected cells; host or cells: 293T cells
Procedure: Since PBP has two consensus sequences for Crk binding, the interaction between PBP and Crk was also examined. The expression plasmid containing PBP cDNA attached to TAG and a plasmid containing Crk cDNA were co-transfected into 293T cells. Forty-eight hrs later, cells were lysed and proteins immunoprecipitated with anti-PBP-TAG and run on SDS acrylamide gels.
(§1) For immunoprecipitation of the large hydrophilic loop of PSs or Crk with PBP, cells were lysed in RIPA buffer (100 mM NaCl, 0.5% NP-40, 0.5% DOC, 0.1% SDS, 50 mM Tris, pH 7.5, 1 mM PMSF and 1 μg/ml aprotinin, 1 μg/l leupeptin) on ice for 30 min. For immunoprecipitation of full length PS1 with PBP, RIPA buffer with 1% NP40 but without DOC and SDS was used. Cell lysates were spun for 10 min at 10,000 g. The resulting supernatants were preadsorbed with anti-mouse IgG-agarose (Sigma) for 4 hours at 4° C. After centrifugation, antibody 12CA5 and anti-mouse IgG-agarose were added at 4° C. overnight. After incubation with anti-mouse IgG-agarose, immunoprecipitates were subjected to SDS-polyacrylamide gel electrophoresis and transferred to Immobilon (Millipore, Bedford, Mass.). Western blot analysis with anti-FLAG and 12CA5 monoclonal antibodies or an antibody against Crk was then performed. The bound antibodies were detected by the ECL-plus chemiluminescence system (Amersham, Arlington Heights, Ill.).

[1] = tested on: Ca2+-activated Cl- current; assay: Ca2+-activated Cl- current induced by serum in Xenopus oocytes; format: cell-based
From the text: Xenopus oocytes contain a plasma membrane CF channel which is activated by increases in intracellular Ca^2+, and intracellular Ca^2+ release is activated exclusively by inositol 1,4,5-triphosphate (IP3) Miledi & Parker, J. Physiol., 415:189-210 (1989)). Lysophosphatidic acid (LPA) increases the Ca^2+-activated Cl^− current in oocytes expressing PS1 relative to control oocytes (Leissring et al. (1999)). Since PBP can associate with PS1, the effect of the interaction of PBP with PS1 on the activation of Ca^2+-activated Cl^− current induced by serum (Miledi & Parker (1989)) was examined with Xenopus oocytes. […] Injection of cRNAs into Xenopus oocytes and the electrophysiological recordings were done as described previously (Kimura & Schubert, Proc. Natl. Acad. Sci. (USA), 90:7508-7512 (1993)).

[2] = target: T3, large hydrophilic loop of PS1 (Homo sapiens, UniProt P49768); assay: co-immunoprecipitation in 293T cells, PS1 loop; format: binding; conditions: immunoprecipitation with anti-TAG, 48 hrs after transfection, PS1-FLAG loop
T3 construct: and a large hydrophilic loop (amino acids 263-407); expressed in transfected cells; host or cells: 293T human kidney cells, pCIS2 expression vector
Procedure: To confirm the yeast two-hybrid data, the interaction between PBP and PSs was assayed in mammalian cells by immunoprecipitation. Human kidney 293-T cells, and monkey kidney COS-7 cells were cultured in Dulbecco's modified Eagle's medium supplemented with 10% fetal calf serum at 37° C. in a 10% CO2 atmosphere. A nine-amino acid TAG epitope ([…]) (SEQ ID NO:6) was incorporated in-frame at the 3′ end of the PBP cDNA (PBP-TAG), and an eight amino acid FLAG epitope ([…]) (SEQ ID NO:7) was attached in frame at the 5′ end of the large hydrophilic loop of PS1 cDNA and at the 3′ end of full length PS1 cDNA as described previously (Kimura, H., Proc. Natl. Acad. Sci. (USA), 90:2165-2169 (1993)). The resulting fragments were inserted into the pCIS2 expression vector (Genentech, San Francisco, Calif.) for transient or constitutive expression. […]
For immunoprecipitation of the large hydrophilic loop of PSs or Crk with PBP, cells were lysed in RIPA buffer (100 mM NaCl, 0.5% NP-40, 0.5% DOC, 0.1% SDS, 50 mM Tris, pH 7.5, 1 mM PMSF and 1 μg/ml aprotinin, 1 μg/l leupeptin) on ice for 30 min. […] The bound antibodies were detected by the ECL-plus chemiluminescence system (Amersham, Arlington Heights, Ill.).

full length PS1 [3] = target: T4, full length PS1 (Homo sapiens, UniProt P49768, L392V); assay: co-immunoprecipitation with full length PS1 in 293T cell lines; format: binding; conditions: PS1 expressing the L392V mutation, overexpressing cells
T4 construct: three different clonal 293T cell lines which stably express full length PS1 were transfected with PBP-TAG; expressed in transfected cells; host or cells: clonal 293T cell lines stably expressing PS1
From the text: (§2) To examine the interaction of PBP with the fill length PS molecule, three different clonal 293T cell lines which stably express full length PS1 were transfected with PBP-TAG and the ability of PS1 to bind to PBP assayed by immunoprecipitation. Forty-eight hrs after transfection, cells were lysed and proteins immunoprecipitated with 12CA5 (anti-TAG), which recognizes PBP-TAG (anti-PBP-TAG). The immunoprecipitates were subjected to polyacrylamide gel electrophoresis, transferred to Immobilon-P, and reacted with anti-TAG or an anti-serum against PS1.
as §1, with “After incubation with anti-mouse IgG-agarose, immunoprecipitates were subjected to SDS-polyacrylamide gel electrophoresis and transferred to Immobilon (Millipore, Bedford, Mass.). Western blot analysis with anti-FLAG and 12CA5 monoclonal antibodies or an antibody against Crk was then performed.” left out, “Ill.). […]” for “Ill.).”

full length PS1 [4] = target: T5, full length PS1 (Homo sapiens, UniProt P49768); assay: as above; format: binding; conditions: co-immunoprecipitation, 293T lines stably expressing PS1
T5 construct: three different clonal 293T cell lines which stably express full length PS1 were transfected with PBP-TAG; expressed in transfected cells; host or cells: clonal 293T cell lines stably expressing PS1
From the text: as §2
as §1, with “After incubation with anti-mouse IgG-agarose, immunoprecipitates were subjected to SDS-polyacrylamide gel electrophoresis and transferred to Immobilon (Millipore, Bedford, Mass.). Western blot analysis with anti-FLAG and 12CA5 monoclonal antibodies or an antibody against Crk was then performed.” left out, “Ill.). […]” for “Ill.).”

T2 sequence (P46108 whole entry, species assumed): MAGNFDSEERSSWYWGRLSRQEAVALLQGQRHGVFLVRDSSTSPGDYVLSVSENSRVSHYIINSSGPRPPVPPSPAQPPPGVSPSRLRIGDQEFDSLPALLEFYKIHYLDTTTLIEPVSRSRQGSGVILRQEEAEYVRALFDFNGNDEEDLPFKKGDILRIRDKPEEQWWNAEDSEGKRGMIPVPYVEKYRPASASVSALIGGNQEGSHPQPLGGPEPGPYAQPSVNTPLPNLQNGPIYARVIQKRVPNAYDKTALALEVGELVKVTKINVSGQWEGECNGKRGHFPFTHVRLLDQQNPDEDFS

## PBP: novel 2027 amino acid protein, 233 kD, binds presenilins and Crk; expressed from cDNA in cells (KYGVVICSFRGSVPQGLVLEIGETVQILEKCEGWYRGVSTKKPNVKGLFPANYIHLK; listed as Mus musculus)
PS1
  productive interaction with FAD mutant of PS1 (L392V): productive interactions did not occur
Crk
  co-precipitation with Crk: co-precipitates
[1]; PBP alone expressed
  Ca2+-activated Cl- current: slightly decreases
[1]; PS1-loop mutation L392V in the presence of PBP
  Cl- current: does not suppress
[1]; co-expression with PS1, P<0.05 PS1 vs PS1+PBP
  Ca2+-activated Cl- current: significantly suppresses
[2]
  interaction with PS1: interacts
Full length PS1 [3]
  immune precipitation of PS1 L392V with PBP: immune precipitate with PBP
Full length PS1 [4]
  interaction with full length PS1: interacts
